# Measurements taken from patent publication US20200157212A1 (Pfizer, published 2020).
# Positions count from the first letter of the chain named.
# T1: Rat ROBO2 on cells (rat, UniProt Q7TPD3 22-1469 (mouse entry))
# T1 construct: overexpressed on HEK293 cells in flow cytometry; endogenous on rat SVZ neuronal explants in the SVZa assay
# T1 chain: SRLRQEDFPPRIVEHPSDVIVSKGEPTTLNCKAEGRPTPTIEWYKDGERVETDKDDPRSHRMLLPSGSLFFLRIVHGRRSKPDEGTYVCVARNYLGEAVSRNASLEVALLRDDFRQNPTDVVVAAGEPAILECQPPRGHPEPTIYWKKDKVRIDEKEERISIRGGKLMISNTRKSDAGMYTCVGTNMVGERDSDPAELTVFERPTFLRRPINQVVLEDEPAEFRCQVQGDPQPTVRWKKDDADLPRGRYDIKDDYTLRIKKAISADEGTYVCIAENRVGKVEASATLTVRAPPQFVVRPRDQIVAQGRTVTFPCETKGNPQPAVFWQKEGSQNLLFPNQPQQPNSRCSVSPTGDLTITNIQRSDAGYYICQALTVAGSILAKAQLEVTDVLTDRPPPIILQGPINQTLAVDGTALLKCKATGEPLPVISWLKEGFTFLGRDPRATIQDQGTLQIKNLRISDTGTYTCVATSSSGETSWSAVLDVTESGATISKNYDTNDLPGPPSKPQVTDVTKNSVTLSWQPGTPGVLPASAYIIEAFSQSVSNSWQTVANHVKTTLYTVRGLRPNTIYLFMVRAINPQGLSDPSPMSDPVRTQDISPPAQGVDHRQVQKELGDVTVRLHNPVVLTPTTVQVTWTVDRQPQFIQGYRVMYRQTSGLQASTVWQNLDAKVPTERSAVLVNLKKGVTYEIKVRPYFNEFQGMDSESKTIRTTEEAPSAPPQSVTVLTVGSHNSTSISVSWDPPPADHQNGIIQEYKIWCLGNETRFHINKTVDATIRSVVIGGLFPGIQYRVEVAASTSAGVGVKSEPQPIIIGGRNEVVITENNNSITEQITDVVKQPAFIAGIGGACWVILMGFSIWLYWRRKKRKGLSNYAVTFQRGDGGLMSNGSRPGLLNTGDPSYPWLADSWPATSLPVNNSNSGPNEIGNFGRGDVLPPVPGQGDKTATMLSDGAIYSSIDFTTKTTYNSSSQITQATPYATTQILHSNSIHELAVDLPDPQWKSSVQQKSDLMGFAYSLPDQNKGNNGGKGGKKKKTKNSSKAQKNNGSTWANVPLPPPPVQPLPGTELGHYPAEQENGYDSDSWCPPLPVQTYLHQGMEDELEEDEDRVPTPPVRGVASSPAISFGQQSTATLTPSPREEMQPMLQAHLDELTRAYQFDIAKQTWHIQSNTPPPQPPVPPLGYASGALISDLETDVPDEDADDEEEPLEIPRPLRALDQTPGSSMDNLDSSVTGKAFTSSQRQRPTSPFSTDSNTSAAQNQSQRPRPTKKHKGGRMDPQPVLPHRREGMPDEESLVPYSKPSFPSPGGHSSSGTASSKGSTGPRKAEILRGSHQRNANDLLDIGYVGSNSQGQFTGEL
# B1: 93H2 (antibody, human IgG1, kappa, V domains shown)
# VH: EVQLVQSGAEVKKPGASVKVSCKASGYTFTGYYMHWVRQAPGQGLEWMGWINPNSGATNFPQKFQGRVTMTRDTSITTAYMDLSRLRSDDTAVYYCARESGDDAFDIWGQGTMVTVSS
# VL: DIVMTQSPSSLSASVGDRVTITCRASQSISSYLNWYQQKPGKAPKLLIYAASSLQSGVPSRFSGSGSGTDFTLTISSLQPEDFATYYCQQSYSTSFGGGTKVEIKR
# notes: also called parental 93H2; 93H2 mAb
# B2: Abcs25 (antibody, human IgG1, kappa, V domains shown)
# VH: B1 VH with N54K, S55D, A57D, N59E
# VL: DIVMTQSPSSLSASVGDRVTITCRASQSISSYLNWYQQKPGKAPKLLIYAASSLQSGVPSRFSGSGSGTDFTLTISSLQPEDFATYYCQQSVGLSFGGGTKVEIKR
# notes: chain-shuffled IgG
# B3: Abcs35 (antibody, human IgG1, kappa)
# heavy: EVQLVQSGAEVKKPGASVKVSCKASGYTFTGYYMHWVRQAPGQGLEWMGWINPKNGDTEFPQKFQGRVTMTRDTSITTAYMDLSRLRSDDTAVYYCARESGDDAFDIWGQGTMVTVSSASTKGPSVFPLAPSSKSTSGGTAALGCLVKDYFPEPVTVSWNSGALTSGVHTFPAVLQSSGLYSLSSVVTVPSSSLGTQTYICNVNHKPSNTKVDKKVEPKSCDKTHTCPPCPAPEAAGAPSVFLFPPKPKDTLMISRTPEVTCVVVDVSHEDPEVKFNWYVDGVEVHNAKTKPREEQYNSTYRVVSVLTVLHQDWLNGKEYKCKVSNKALPAPIEKTISKAKGQPREPQVYTLPPSREEMTKNQVSLTCLVKGFYPSDIAVEWESNGQPENNYKTTPPVLDSDGSFFLYSKLTVDKSRWQQGNVFSCSVMHEALHNHYTQKSLSLSPGK
# light: DIVMTQSPSSLSASVGDRVTITCRASQSISSYLNWYQQKPGKAPKLLIYAASSLQSGVPSRFSGSGSGTDFTLTISSLQPEDFATYYCQQSVGLFFGGGTKVEIKRTVAAPSVFIFPPSDEQLKSGTASVVCLLNNFYPREAKVQWKVDNALQSGNSQESVTEQDSKDSTYSLSSTLTLSKADYEKHKVYACEVTHQGLSSPVTKSFNRGEC
# notes: fully human IgG1; VH of Ab96 with VL of Ab123
# Target: T1, Rat ROBO2 on cells
# Experiment: flow cytometry, HEK293 cells, average of n = 3
# Protocol: Binding of the antibodies was detected using a secondary fluorochrome conjugated anti-human IgG F(ab′)₂ antibody and samples were analyzed on a Fortessa cytometer (BD Biosciences). The fold ROBO2 selectivity was calculated as the geometric mean fluorescence intensity (Geo MFI) with ROBO2 cells/Geo MFI with ROBO1 cells. A fold change higher than 3 was considered to be ROBO2 specific (Table 2, Fold Selectivity). Some affinity matured clones had increased ROBO1 reactivity, for example Abcs 55, CTI-R2-10 and CTIR2-13.
# Based upon several criteria, Abcs25 and Abcs35 were selected for further characterization. Using flow cytometry, improvement in the binding EC₅₀ to human ROBO2 relative to the parental 93H2 was evaluated. Starting at 6.7 nM, 11-point, 3-fold dilution series were made for each antibody and used to stain HEK293 overexpressing human ROBO2 as described above for the ROBO2 fold selectivity (Example 2). […] In addition to measuring improved binding to human ROBO2, it was important to ensure that high affinity binding to both cynomolgus monkey ROBO2 and rat ROBO2 was maintained. Using HEK293 cells overexpressing either cynomolgus monkey ROBO2 or rat ROBO2, the relative dose-dependent binding of 93H2, Abcs25 and Abcs35 was evaluated as described above. High affinity binding to both cynomolgus monkey and rat ROBO2 was maintained in Abcs25 and Abcs35 (Table 4). […] Briefly, Abcs35 was immobilized to 300 resonance units (RU) on a CM5 chip. Association of ROBO2 Ig1-Ig2-His (ROBO2) was measured over 5 minutes and dissociation was followed for a period of 10 minutes.
row,EC50,Binder
1,1.2 nM,B1
2,0.062 nM,B2

row,Binder,EC50
1,B3,0.048 nM
